# Results: article PMC8809517, “Cofactor-independent RNA editing by a synthetic S-type PPR protein”
# T1: GFP-9S library array, motif 4 ND N98T;D124T (synthetic construct, N98T;D124T)
# T1 chain: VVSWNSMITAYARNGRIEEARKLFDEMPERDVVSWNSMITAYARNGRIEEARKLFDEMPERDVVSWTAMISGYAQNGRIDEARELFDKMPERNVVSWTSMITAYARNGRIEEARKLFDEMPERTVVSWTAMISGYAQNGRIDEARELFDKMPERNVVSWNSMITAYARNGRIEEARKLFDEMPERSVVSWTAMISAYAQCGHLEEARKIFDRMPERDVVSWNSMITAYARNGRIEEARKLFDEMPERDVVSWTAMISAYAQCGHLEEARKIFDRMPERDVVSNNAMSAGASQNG
# T2: GFP-9S library array, motif 4 ND N98P;D124C (synthetic construct, N98P;D124C)
# T2 chain: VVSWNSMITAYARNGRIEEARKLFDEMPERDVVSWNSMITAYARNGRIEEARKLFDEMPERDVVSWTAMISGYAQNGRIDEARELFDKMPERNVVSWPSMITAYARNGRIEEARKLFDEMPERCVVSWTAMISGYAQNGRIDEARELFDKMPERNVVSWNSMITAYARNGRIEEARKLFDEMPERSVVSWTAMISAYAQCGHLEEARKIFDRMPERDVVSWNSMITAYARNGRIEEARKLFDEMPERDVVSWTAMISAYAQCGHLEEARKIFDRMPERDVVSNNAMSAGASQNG
# T3: GFP-9S library array, motif 4 ND N98C;D124Y (synthetic construct, N98C;D124Y)
# T3 chain: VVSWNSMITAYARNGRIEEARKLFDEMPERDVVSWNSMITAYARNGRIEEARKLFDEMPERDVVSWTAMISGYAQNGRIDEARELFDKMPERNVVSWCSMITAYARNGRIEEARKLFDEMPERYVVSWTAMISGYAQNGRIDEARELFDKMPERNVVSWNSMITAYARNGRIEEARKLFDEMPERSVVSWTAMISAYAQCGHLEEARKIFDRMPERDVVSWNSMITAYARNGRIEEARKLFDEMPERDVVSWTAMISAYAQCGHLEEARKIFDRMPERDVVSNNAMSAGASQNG
# T4: GFP-9S library array, motif 4 ND N98M;D124P (synthetic construct, N98M;D124P)
# T4 chain: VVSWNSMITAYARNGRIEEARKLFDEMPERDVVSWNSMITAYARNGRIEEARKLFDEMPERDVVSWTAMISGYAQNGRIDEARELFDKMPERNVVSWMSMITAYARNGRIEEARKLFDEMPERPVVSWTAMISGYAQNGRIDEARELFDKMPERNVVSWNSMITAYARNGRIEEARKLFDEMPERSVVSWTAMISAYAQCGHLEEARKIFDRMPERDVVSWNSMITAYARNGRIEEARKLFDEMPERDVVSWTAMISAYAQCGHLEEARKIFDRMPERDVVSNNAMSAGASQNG
# T5: GFP-9S library array, motif 4 ND N98A (synthetic construct, N98A)
# T5 chain: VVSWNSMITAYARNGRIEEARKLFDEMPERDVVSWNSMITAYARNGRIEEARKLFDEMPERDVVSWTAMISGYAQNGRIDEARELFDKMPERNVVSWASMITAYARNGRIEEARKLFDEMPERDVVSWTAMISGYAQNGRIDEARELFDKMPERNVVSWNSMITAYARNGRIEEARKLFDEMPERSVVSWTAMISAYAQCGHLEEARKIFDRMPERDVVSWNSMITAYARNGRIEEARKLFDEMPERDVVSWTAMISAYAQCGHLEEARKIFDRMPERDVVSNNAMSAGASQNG
# Columns and labels:
# Test in all cases: high-throughput RNA pulldown from lysate on Ni-NTA beads; HRP: 50 mM Tris pH 8, 150 mM NaCl, 1 mM beta-mercaptoethanol, 50 ug/ml BSA, 3 ug/ml yeast RNA, 0.5% heparin; ITC and FP: Tris pH 8, 200 mM KCl, 5% glycerol; MST: 50 mM Tris pH 8, 200 mM NaCl, 1 mM DTT, BSA, heparin, 0.05% Tween 20
# Conditions in all cases: tags: N-terminal His-eGFP
# [1] = target: T1, GFP-9S library array, motif 4 ND …
# [2] = target: T2, GFP-9S library array, motif 4 ND …
# [3] = target: T3, GFP-9S library array, motif 4 ND …
# [4] = target: T4, GFP-9S library array, motif 4 ND …
# [5] = target: T5, GFP-9S library array, motif 4 ND N98A
binder,measurement,setting,value
AUUACACGUGA (ssRNA) [Cy5-rpoA],Kd,[1]; label: 5' Cy5,83.1 nM
same,Kd,[2]; label: 5' Cy5,332 nM
same,Kd,[3]; label: 5' Cy5,56.9 nM
same,Kd,[4]; label: 5' Cy5,106 nM
same,Kd,[5]; label: 5' Cy5,194 nM
AUUAGACGUGA (ssRNA) [Cy5-rpoA-G],Kd,[1]; label: 5' Cy5,81.4 nM
same,Kd,[2]; label: 5' Cy5,297 nM
same,Kd,[3]; label: 5' Cy5,72.3 nM
same,Kd,[4]; label: 5' Cy5,115 nM
same,Kd,[5]; label: 5' Cy5,156 nM
AUUAAACGUGA (ssRNA) [IR-rpoA-A],Kd,[1]; label: 5' IRDye 800CW,18.3 nM
same,Kd,[2]; label: 5' IRDye 800CW,660 nM
same,Kd,[3]; label: 5' IRDye 800CW,217 nM
same,Kd,[4]; label: 5' IRDye 800CW,264 nM
same,Kd,[5]; label: 5' IRDye 800CW,223 nM
AUUAUACGUGA (ssRNA) [IR-rpoA-U],Kd,[1]; label: 5' IRDye 800CW,63.1 nM
same,Kd,[2]; label: 5' IRDye 800CW,874 nM
same,Kd,[3]; label: 5' IRDye 800CW,94.2 nM
same,Kd,[4]; label: 5' IRDye 800CW,296 nM
same,Kd,[5]; label: 5' IRDye 800CW,50.8 nM
